Experimental data from the Human Domainome abundance scans (Beltran et al. 2025).
± gives the uncertainty stated by the source.

B1: Protein C-ets-1, residues 55 to 135; numbered along this chain, P14921 (parent)
chain: GFTKEQQRLGIPKDPRQWTETHVRDWVMWAVNEFSLKGVDFQKFCMNGAALCALGKDCFLELAPDFVGDILWEHLEILQKE

Variants of: B1
Test: abundance fitness (aPCA) (normalised: wild type 0, dead -1); higher = more abundant; growth selection in yeast, the domain comes from the species named
Settings: Homo sapiens

Abundance fitness: each site, then its substitutions
V67: S -0.002 ± 0.066, I -0.159 ± 0.1, E 0.081 ± 0.094, N -0.242 ± 0.11, Q -0.069 ± 0.051, T -0.057 ± 0.086, K -0.305 ± 0.23, A -0.062 ± 0.054, G -0.018 ± 0.038, L -0.256 ± 0.061, F -0.267 ± 0.16, W -0.414 ± 0.096, R -0.167 ± 0.048, D -0.138 ± 0.096, C -0.04 ± 0.095, H -0.284 ± 0.14, Y -0.319 ± 0.13
L62: D -0.968 ± 0.22, E -0.655 ± 0.058, S -0.401 ± 0.048, N -0.419 ± 0.12, Q -0.3 ± 0.053, Y -0.141 ± 0.1, F -0.298 ± 0.062, V -0.34 ± 0.035, C -0.265 ± 0.048, K -0.195 ± 0.066, R -0.103 ± 0.031, P -0.954 ± 0.11, I -0.049 ± 0.094, A -0.434 ± 0.047, G -0.461 ± 0.034, H -0.438 ± 0.11
W72: I -1.06 ± 0.46, V -0.918 ± 0.086, H -0.361 ± 0.084, N -0.746 ± 0.2, S -0.735 ± 0.062, R -0.577 ± 0.038, T -1 ± 0.19, Q -0.804 ± 0.11, M -0.389 ± 0.078, F -0.098 ± 0.062, P -1.15 ± 0.23, L -0.316 ± 0.033, D -1.07 ± 0.38, C -0.62 ± 0.067, A -0.52 ± 0.053, Y 0.11 ± 0.075
L78: R -0.583 ± 0.035, P -0.513 ± 0.048, D -0.486 ± 0.097, G -0.566 ± 0.04, F -0.39 ± 0.06, E -0.5 ± 0.066, C -0.16 ± 0.034, Q -0.199 ± 0.053, W -0.244 ± 0.047, V -0.097 ± 0.029, N -0.775 ± 0.15, A -0.299 ± 0.057, K -0.649 ± 0.079, H -0.553 ± 0.1, I -0.098 ± 0.078, Y -0.463 ± 0.091, S -0.508 ± 0.049, M -0.116 ± 0.087, T -0.289 ± 0.066
E76: Q -0.043 ± 0.062, V -0.108 ± 0.045, N 0.057 ± 0.32, K -0.053 ± 0.09, A -0.043 ± 0.044, F -0.273 ± 0.078, W -0.109 ± 0.051, S -0.021 ± 0.037, I -0.267 ± 0.13, Y 0.029 ± 0.036, L -0.094 ± 0.043, T -0.14 ± 0.065, D -0.015 ± 0.059, R -0.072 ± 0.035, C -0.092 ± 0.051, P -0.205 ± 0.058, H -0.085 ± 0.091, M 0.04 ± 0.063, G -0.036 ± 0.033
D69: Q -0.03 ± 0.066, C -0.167 ± 0.063, A -0.031 ± 0.037, K -0.057 ± 0.067, F -0.301 ± 0.066, R -0.09 ± 0.04, M -0.055 ± 0.065, N -0.002 ± 0.064, E -0.035 ± 0.062, Y -0.038 ± 0.089, H -0.153 ± 0.083, I -0.038 ± 0.14, V -0.098 ± 0.041, P 0.015 ± 0.049, S -0.053 ± 0.035, W -0.262 ± 0.056, L -0.057 ± 0.036, T -0.134 ± 0.055, G -0.059 ± 0.031
Q79: H -0.178 ± 0.12
A63: T -0.134 ± 0.1, G -0.262 ± 0.034, C 0.02 ± 0.055, Q -0.282 ± 0.15, N -0.399 ± 0.17, M -0.115 ± 0.059, P -1.01 ± 0.13, K -0.635 ± 0.096, R -0.924 ± 0.087, D -0.873 ± 0.13, I -0.038 ± 0.12, Y -0.299 ± 0.11, S -0.114 ± 0.038, H -0.096 ± 0.051, W -0.014 ± 0.062, V 0.007 ± 0.033, L -0.016 ± 0.032
D65: K -0.01 ± 0.065, T 0.027 ± 0.09, V -0.043 ± 0.041, S 0.006 ± 0.039, P 0.076 ± 0.039, W -0.311 ± 0.058, F -0.221 ± 0.08, H -0.09 ± 0.076, N 0.084 ± 0.074, C -0.057 ± 0.032, G 0.024 ± 0.027, A 0.004 ± 0.039, M -0.019 ± 0.075, I -0.008 ± 0.11, Y -0.04 ± 0.075, E 0.01 ± 0.055, L -0.09 ± 0.033
I70: K -0.065 ± 0.066, V -0.038 ± 0.043, W -0.398 ± 0.048, P -0.289 ± 0.039, Y -0.146 ± 0.067, N -0.546 ± 0.096, M -0.102 ± 0.063, R -0.036 ± 0.025, T -0.008 ± 0.041, C -0.088 ± 0.059, Q -0.035 ± 0.059, L -0.077 ± 0.037, G -0.705 ± 0.054, A -0.105 ± 0.033, E -0.365 ± 0.052, D -0.532 ± 0.099, F -0.17 ± 0.055, S -0.228 ± 0.037
L71: W -0.946 ± 0.11, F -0.697 ± 0.15, V -1.05 ± 0.079, S -0.805 ± 0.089, Q -0.938 ± 0.17, D -0.657 ± 0.14, A -1.15 ± 0.21, E -0.881 ± 0.15
